Results published in patent US20130263331A1.

Key:
[1] = biological target: putative receptor(s) on brush border membrane vesicles (BBMV) prepared from midguts of third instars of the western corn rootworm (Diabrotica virgifera virgifera LeConte) (Diabrotica virgifera virgifera)
[2] = biological target: putative receptor(s) on brush border membrane vesicles (BBMV) prepared from midguts of third instars of the western corn rootworm (Diabrotica virgifera virgifera LeConte) (Diabrotica virgifera virgifera); assay: Homologous competition: unlabeled Cry3Aa (0-2500 nM) against 5 nM 125I-Cry3Aa on 0.1 mg/ml BBMV; value at about 2500 nM competitor

| Substance | Kd [1] | binding site concentration Bmax (pmole/mg BBMV) [1] | percent of bound 125I-Cry3Aa displaced [2] |
| --- | --- | --- | --- |
| Cry3Aa trypsin core (from UniProt P0A379 159-644) | 24 nM | 22 | 60% |
| Full-length Cry6Aa1 (from UniProt Q45757 1-475) | 10.1 nM | 0.66 |  |
